Results published in publication PMC4440785, “Cytoplasmic Domain of MscS Interacts with Cell Division Protein FtsZ: A Possible Non-Channel Function of the Mechanosensitive Channel in Escherichia Coli” (PLoS ONE, 2015).

Assays:
[1] = target: E. coli FtsZ, purified (GTP-polymerized in the assays) (E. coli) (UniProt P0A9A6); assay: co-sedimentation; co-sedimentation with GTP-polymerized FtsZ carried out similarly to Fig 2 panel A; data fitted with Hill model y = x^n/(Kd+x^n)
[2] = target: the molecule itself; assay: 90° angle light scattering; FtsZ (12 μM) alone or with MBP-ABDOM (12 μM) or MBP in 50 mM PIPES pH 6.0, 1 mM EDTA, 5 mM MgCl2, 30 °C; polymerization induced by 1 mM GTP

Molecule | Kd [1] | binding result [2]
MBP-ABDOM (ABDOM of MscS with N-terminally fused maltose binding protein) (from UniProt P0C0S1 175-265) (domain or fragment) | 5.3 µM | 
MBP-ABDOM-K258A/R259A (from UniProt P0C0S1 175-265) (domain or fragment) | 14.6 µM | 
E. coli FtsZ, purified (GTP-polymerized in the assays) (natural protein, UniProt P0A9A6 1-383, looked up, cell division protein FtsZ, E. coli, from pET11-ftsZ (gift of H. P. Erickson); also called polymerized FtsZ; assembled FtsZ; source: E. coli BL21(DE3) carrying pET11-FtsZ, purified by GTP-induced precipitation (four times)) MFEPMELTNDAVIKVIGVGGGGGNAVEHMVRERIEGVEFFAVNTDAQALRKTAVGQTIQIGSGITKGLGAGANPEVGRNAADEDRDALRAALEGADMVFIAAGMGGGTGTGAAPVVAEVAKDLGILTVAVVTKPFNFEGKKRMAFAEQGITELSKHVDSLITIPNDKLLKVLGRGISLLDAFGAANDVLKGAVQGIAELITRPGLMNVDFADVRTVMSEMGYAMMGSGVASGEDRAEEAAEMAISSPLLEDIDLSGARGVLVNITAGFDLRLDEFETVGNTIRAFASDNATVVIGTSLDPDMNDELRVTVVATGIGMDKRPEITLVTNKQVQQPVMDRYQQHGMAPLTQEQKPVAKVVNDNAPQTAKEPDYLDIPAFLRKQAD |  | binds
